Data set [1] deals with the molecule itself. The data set is described as follows: gel filtration (self-association). The procedure: (§1) Purified protein samples (˜1 mg/ml) were loaded onto a Sephadex-100 column (0.7×60 cm) and eluted with a solution of 50 mM phosphate buffer (pH 7.0) and 100 mM NaCl. EGFP, HcRed1 and DsRed2 (Clontech) were used as monomer, dimer and tetramer standards, respectively. In addition, a tendency to form tetramers has been indicated when recombinant purified EqFP578 was used for the gel-filtration at concentration of about 10 mg/ml.
Recombinant nrM181-5 was prepared, purified and characterized as described in the Example 2 for wild type EqFP578. nrM181-5 is a cyan fluorescent protein, characterized with excitation/emission fluorescence spectra peaked at 400/470 nm (see FIG. 7 for spectra). According to gel-filtration data, nrM181-5 is a monomeric protein at a concentration of 1 mg/ml. The protein is capable of photoconversion to the red fluorescent form in response to violet light irradiation.

Data set [2] concerns the molecule itself. The data set is described as follows: gel filtration on Sephadex-100, self-association (~1 mg/ml dimer; about 10 mg/ml tendency to tetramers). The procedure:
as §1
(In general: SEC sorts molecules by how far they enter the pores of the column.)

Data set [3] concerns the molecule itself. The data set is described as follows: gel filtration as in Example 2, self-association. The protocol:
as §1
Recombinant EqFP578 ml was prepared, purified and characterized as described in the Example 2 for wild type EqFP578. Fluorescence properties of this mutant were similar, but not identical to the wild type EqFP578. It has excitation-emission spectral peaks at 553 and 574 nm, respectively (FIG. 3). […] Like wild type EqFP578, EqFP578 m1 is a dimer.

Data set [4] concerns the molecule itself. As to the kind of experiment: gel filtration, self-association. The protocol: as §1
Recombinant M1-NA was prepared, purified and characterized as described in the Example 2 for wild type EqFP578. According to gel-filtration data, M1-NA is a dimeric protein at a concentration of 1 mg/ml. Fluorescent properties of M1-NA are the same as those of EqFP578 ml. M1-NA is a bright red fluorescent protein, characterized with excitation/emission fluorescence spectra peaked at 553/574 nm. M1-NA fluorescence quantum yield=0.67, molar extinction coefficient (at 553 nm)=92,000 M(−1)cm(−1). M1-NA doesn't form aggregates in vitro, according to gel-electrophoresis data. It also doesn't form any noticeable aggregates upon expression in eukaryotic cells, as it was shown for HeLa and 293T cell lines.
It excitation/emission spectra peaked at 574/602 nm (see FIG. 4 for spectra). M1-602 nm fluorescence quantum yield=0.35, molar extinction coefficient (at 574 nm)=74,400 M″)cm⁽⁻¹⁾. According to gel-filtration data, M1-602 nm is a dimeric protein at concentration of 1 mg/ml.

The results in this text go back to US20130203162A1 (EVROGEN IP JOINT STOCK, published 2013).

Substitutions are numbered along the chain they refer to.

B1: nrM181-5 cyan mutant of EqFP578 (other)
chain: MSELIKENMHMKLYMEGTVNNHHFKCTSEGEGKPYEGTQTMKIKVVEGGPLPFAFDILATSFMYGSKTFINHTQGIPDFFKQSFPEGFTWERVTTYEDGGVLTATQDTSLQDGCLIYNVKIRGVNFPSNGPVMQKKTLGWEAHTEMLYPADGGLEGRSDMALKLVGGGHLIANFKTTYRSKKPAKNLKMPGVYYVDHRLERIKEADKETYVEQHEMAVAKYCDLPSKLGHKLN
notes: Derived from M1-mono1
Turning to B1, the binding result in data set [1] is “no binding (tested: 1 mg/ml)”.

B2: Cyan-2-1 cyan mutant of EqFP578 (other)
chain: B1 chain with E36G, K42R, F53V, K67R, H143F, A172C, H197Y, M216V, K220R
notes: Derived from M1-mono1
Turning to B2, in data set [1], the binding result is recorded as “no binding (tested: 1 mg/ml)”.

B3: wild type Entacmaea quadricolor red fluorescent protein EqFP578 (other)
chain: MSELIKENMHMKLYMEGTVNNHHFKCTSEGERKPYEGTQTMKIKVVEGGPLPFAFDILATSFMYGSKTFINHTQGIPDLFKQSFPEGFTWERITTYEDGGVLTATQDTSLQNGCIIYNVKINGVNFPSNGSVMQKKTLGWEANTEMLYPADGGLRGHSQMALKLVGGGYLHCSFKTTYRSKKPAKNLKMPGFHFVDHRLERIKEADKETYVEQHEMAVAKYCDLPSKLGHR
notes: Recombinant protein from E. coli, purified on TALON resin; Dimer by gel filtration at ~1 mg/ml, with a tendency to form tetramers at about 10 mg/ml; not shown: N-terminal six-histidine tag from the pQE30 vector
B3: in data set [2], the binding result is given as “binds”.

B4: EqFP578 m1 mutant (other)
chain: B3 chain with R32G, T68A, L79F, L110F, S131P, L138R
notes: Engineered mutant of EqFP578; also called EqFP578 ml
Take B4: in data set [3], the binding result is reported as “binds”.

B5: M1-NA non-aggregating mutant of EqFP578 (other)
chain: MGEYSELITENMHMKLYMEGTVNNHHFKCTSEGEGKPYEGTQTMKIKVVEGGPLPFAFDILATSFMYGSKAFINHTQGIPDFFKQSFPEGFTWERITTYEDGGVLTATQDTSFQNGCIIYNVKINGVNFPSNGPVMQKKTRGWEANTEMLYPADGGLRGHSQMALKLVGGGYLHCSFKTTYRSKKPAKNLRMPGFHFVDHRLERIKEADKETYVEQHEMAVAKYCDLPSKLGHS
With B5, in data set [4], the binding result is listed as “binds”.

B6: M1-602 mutant of EqFP578 (other)
chain: B5 chain with Y4D, F113L, I118L, R141L, N146S, G155S, S161G, F177L, R191K
notes: Engineered red-shifted mutant; also called M1-602 nm
Turning to B6, in data set [4], the binding result is “binds”.

B7: M1-637 mutant of EqFP578 (other)
chain: B5 chain with Y4D, F113L, I118L, R141L, N146S, G155S, F177L, R191K, H200R
B7: the binding result in data set [4] is reported as “binds”.
